According to the supplement of paper PMC10567573:

B1: SPRY1 (parent)
chain: WIHRPGCRCKNSNTVYCKLESCPS
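Note: lentivirally expressed fusions sorted by FACS into six bins by GFP to DsRed ratio, PSI derived from sequencing read proportions per bin multiplied by bin number.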

Variants of: B1
Assay: protein stability index of a GFP-peptide fusion (GPS, HEK-293T) (PSI 1-6); higher = more stable
Details: c terminus: a fixed tail appended
WIHRAGCRCKNSNTVYCKLESCPS [P5A] gave a protein stability index of 2.02. WIHRQGCRCKNSNTVYCKLESCPS [P5Q] gave a protein stability index of 2.38. Variant WIHRNGCRCKNSNTVYCKLESCPS [P5N] has a protein stability index of 2.39. Work on WIHRDGCRCKNSNTVYCKLESCPS [P5D] yielded a protein stability index of 3.42. For WIHRLGCRCKNSNTVYCKLESCPS [P5L], the protein stability index was 2.77. Variant WIHRKGCRCKNSNTVYCKLESCPS [P5K] has a protein stability index of 2.21. In the case of WIHREGCRCKNSNTVYCKLESCPS [P5E], the protein stability index is reported as 3.08. Variant WIHRYGCRCKNSNTVYCKLESCPS [P5Y] has a protein stability index of 3.19. With WIHRRGCRCKNSNTVYCKLESCPS [P5R] the protein stability index was 3.01. For WIHRFGCRCKNSNTVYCKLESCPS [P5F], the protein stability index was 1.79. With WIHRTGCRCKNSNTVYCKLESCPS [P5T] the protein stability index was 2.37. With WIHRCGCRCKNSNTVYCKLESCPS [P5C] the protein stability index was 2.02. WIHRSGCRCKNSNTVYCKLESCPS [P5S] gave a protein stability index of 2.27. For WIHRWGCRCKNSNTVYCKLESCPS [P5W], the protein stability index was 1.82. Variant WIHRHGCRCKNSNTVYCKLESCPS [P5H] has a protein stability index of 1.91. Work on WIHRVGCRCKNSNTVYCKLESCPS [P5V] yielded a protein stability index of 2.65. Work on WIHRGGCRCKNSNTVYCKLESCPS [P5G] yielded a protein stability index of 1.85. WIHRMGCRCKNSNTVYCKLESCPS [P5M] showed a protein stability index of 2.15. Variant WIHRIGCRCKNSNTVYCKLESCPS [P5I] has a protein stability index of 2.11. For WIHRPGCGCKNSNTVYCKLESCPS [R8G], the protein stability index was 2.81. WIHRPGCVCKNSNTVYCKLESCPS [R8V] showed a protein stability index of 2.57. With WIHRPGCCCKNSNTVYCKLESCPS [R8C] the protein stability index was 2.25. With WIHRPGCICKNSNTVYCKLESCPS [R8I] the protein stability index was 2.38. WIHRPGCECKNSNTVYCKLESCPS [R8E] gave a protein stability index of 3.33. With WIHRPGCFCKNSNTVYCKLESCPS [R8F] the protein stability index was 2.08. Variant WIHRPGCKCKNSNTVYCKLESCPS [R8K] has a protein stability index of 2.68. WIHRPGCYCKNSNTVYCKLESCPS [R8Y] gave a protein stability index of 2.2. Work on WIHRPGCNCKNSNTVYCKLESCPS [R8N] yielded a protein stability index of 3.28. WIHRPGCDCKNSNTVYCKLESCPS [R8D] gave a protein stability index of 2.67. With WIHRPGCWCKNSNTVYCKLESCPS [R8W] the protein stability index was 2.21. Variant WIHRPGCTCKNSNTVYCKLESCPS [R8T] has a protein stability index of 2.26. Work on WIHRPGCQCKNSNTVYCKLESCPS [R8Q] yielded a protein stability index of 3.29. WIHRPGCMCKNSNTVYCKLESCPS [R8M] showed a protein stability index of 2.83. Work on WIHRPGCPCKNSNTVYCKLESCPS [R8P] yielded a protein stability index of 2.4. WIHRPGCSCKNSNTVYCKLESCPS [R8S] showed a protein stability index of 2.24. In the case of WIHRPGCLCKNSNTVYCKLESCPS [R8L], the protein stability index is reported as 2.6. With WIHRPGCHCKNSNTVYCKLESCPS [R8H] the protein stability index was 2.63. In the case of WIHRPGCACKNSNTVYCKLESCPS [R8A], the protein stability index is reported as 3. Work on WIHRPQCRCKNSNTVYCKLESCPS [G6Q] yielded a protein stability index of 2.16. Variant WIHRPDCRCKNSNTVYCKLESCPS [G6D] has a protein stability index of 2.62. With WIHRPICRCKNSNTVYCKLESCPS [G6I] the protein stability index was 3.08. In the case of WIHRPCCRCKNSNTVYCKLESCPS [G6C], the protein stability index is reported as 2. For WIHRPVCRCKNSNTVYCKLESCPS [G6V], the protein stability index was 1.93. Work on WIHRPWCRCKNSNTVYCKLESCPS [G6W] yielded a protein stability index of 2.69. For WIHRPKCRCKNSNTVYCKLESCPS [G6K], the protein stability index was 2.32. For WIHRPRCRCKNSNTVYCKLESCPS [G6R], the protein stability index was 2.12. In the case of WIHRPMCRCKNSNTVYCKLESCPS [G6M], the protein stability index is reported as 2.16. WIHRPPCRCKNSNTVYCKLESCPS [G6P] gave a protein stability index of 2.61. Variant WIHRPSCRCKNSNTVYCKLESCPS [G6S] has a protein stability index of 2.48. Work on WIHRPACRCKNSNTVYCKLESCPS [G6A] yielded a protein stability index of 2.15. With WIHRPLCRCKNSNTVYCKLESCPS [G6L] the protein stability index was 1.97. WIHRPFCRCKNSNTVYCKLESCPS [G6F] showed a protein stability index of 1.7. Work on WIHRPTCRCKNSNTVYCKLESCPS [G6T] yielded a protein stability index of 3.09. Work on WIHRPECRCKNSNTVYCKLESCPS [G6E] yielded a protein stability index of 3.01. In the case of WIHRPNCRCKNSNTVYCKLESCPS [G6N], the protein stability index is reported as 2.37. Variant WIHRPYCRCKNSNTVYCKLESCPS [G6Y] has a protein stability index of 2.26. With WIHRPHCRCKNSNTVYCKLESCPS [G6H] the protein stability index was 2.06. In the case of WIHRPGLRCKNSNTVYCKLESCPS [C7L], the protein stability index is reported as 1.72. With WIHRPGIRCKNSNTVYCKLESCPS [C7I] the protein stability index was 1.52. WIHRPGQRCKNSNTVYCKLESCPS [C7Q] gave a protein stability index of 1.94. WIHRPGARCKNSNTVYCKLESCPS [C7A] gave a protein stability index of 2.35. Variant WIHRPGDRCKNSNTVYCKLESCPS [C7D] has a protein stability index of 2.28. Work on WIHRPGTRCKNSNTVYCKLESCPS [C7T] yielded a protein stability index of 1.82. WIHRPGVRCKNSNTVYCKLESCPS [C7V] gave a protein stability index of 1.15. For WIHRPGWRCKNSNTVYCKLESCPS [C7W], the protein stability index was 3. Work on WIHRPGKRCKNSNTVYCKLESCPS [C7K] yielded a protein stability index of 1.49. WIHRPGMRCKNSNTVYCKLESCPS [C7M] gave a protein stability index of 2.14. In the case of WIHRPGGRCKNSNTVYCKLESCPS [C7G], the protein stability index is reported as 1.25. WIHRPGNRCKNSNTVYCKLESCPS [C7N] gave a protein stability index of 2.37. Variant WIHRPGYRCKNSNTVYCKLESCPS [C7Y] has a protein stability index of 1.45. WIHRPGPRCKNSNTVYCKLESCPS [C7P] gave a protein stability index of 1.4. Work on WIHRPGSRCKNSNTVYCKLESCPS [C7S] yielded a protein stability index of 1.77. WIHRPGERCKNSNTVYCKLESCPS [C7E] showed a protein stability index of 1.85. For WIHRPGHRCKNSNTVYCKLESCPS [C7H], the protein stability index was 2.55. Work on WIHRPGRRCKNSNTVYCKLESCPS [C7R] yielded a protein stability index of 3.4. For WIHRPGFRCKNSNTVYCKLESCPS [C7F], the protein stability index was 2.89. For WIHRPGCRDKNSNTVYCKLESCPS [C9D], the protein stability index was 2.07. WIHRPGCRAKNSNTVYCKLESCPS [C9A] showed a protein stability index of 2.19. WIHYPGCRCKNSNTVYCKLESCPS [R4Y] gave a protein stability index of 3.18. For WIHIPGCRCKNSNTVYCKLESCPS [R4I], the protein stability index was 2.82. WIHWPGCRCKNSNTVYCKLESCPS [R4W] showed a protein stability index of 1.97. For WIHPPGCRCKNSNTVYCKLESCPS [R4P], the protein stability index was 3.03. WIHMPGCRCKNSNTVYCKLESCPS [R4M] gave a protein stability index of 2.85. Work on WIHQPGCRCKNSNTVYCKLESCPS [R4Q] yielded a protein stability index of 4.23. WIHLPGCRCKNSNTVYCKLESCPS [R4L] showed a protein stability index of 3.06. WIHVPGCRCKNSNTVYCKLESCPS [R4V] showed a protein stability index of 3.11. Variant WIHKPGCRCKNSNTVYCKLESCPS [R4K] has a protein stability index of 2.34. With WIHTPGCRCKNSNTVYCKLESCPS [R4T] the protein stability index was 2.67. Work on WIHEPGCRCKNSNTVYCKLESCPS [R4E] yielded a protein stability index of 3.48. WIHGPGCRCKNSNTVYCKLESCPS [R4G] showed a protein stability index of 3.95. WIHSPGCRCKNSNTVYCKLESCPS [R4S] showed a protein stability index of 3.07. For WIHNPGCRCKNSNTVYCKLESCPS [R4N], the protein stability index was 3.43. Variant WIHHPGCRCKNSNTVYCKLESCPS [R4H] has a protein stability index of 3.3. For WIHFPGCRCKNSNTVYCKLESCPS [R4F], the protein stability index was 2.72.
